Reference: patent publication US20240269235A1 (Gilead, published 2024)

Tests used:
[1] = molecular target: T1, human IL-2Rα on Treg cells (CD3+, CD4+, CD25hi, FoxP3+) of human PBMC (human, UniProt P01589 22-272); test: cell-based or functional assay
T1 sequence (looked up): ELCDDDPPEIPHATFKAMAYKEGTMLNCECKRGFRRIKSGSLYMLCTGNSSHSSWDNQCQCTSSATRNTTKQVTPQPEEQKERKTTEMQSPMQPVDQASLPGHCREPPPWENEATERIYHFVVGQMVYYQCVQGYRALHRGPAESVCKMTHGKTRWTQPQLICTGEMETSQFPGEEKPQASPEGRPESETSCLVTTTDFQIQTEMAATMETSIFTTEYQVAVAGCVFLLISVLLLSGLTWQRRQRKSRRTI

[2] = molecular target: T2, IL-2Rαβγ on KHYG-1 cells (human NK leukemia cell line that expresses IL-2Rα, β, and γ) (human, UniProt P01589 22-272; P14784 27-551; P31785 23-369); test: cell-based or functional assay
T2 sequence (looked up) 1: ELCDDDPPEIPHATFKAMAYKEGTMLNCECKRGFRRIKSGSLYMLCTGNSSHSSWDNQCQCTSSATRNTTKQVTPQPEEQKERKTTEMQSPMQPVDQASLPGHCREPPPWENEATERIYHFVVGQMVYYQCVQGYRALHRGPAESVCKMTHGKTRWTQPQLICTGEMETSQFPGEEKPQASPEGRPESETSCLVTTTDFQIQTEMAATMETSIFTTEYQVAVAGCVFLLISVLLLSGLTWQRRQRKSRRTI
T2 sequence (looked up) 2: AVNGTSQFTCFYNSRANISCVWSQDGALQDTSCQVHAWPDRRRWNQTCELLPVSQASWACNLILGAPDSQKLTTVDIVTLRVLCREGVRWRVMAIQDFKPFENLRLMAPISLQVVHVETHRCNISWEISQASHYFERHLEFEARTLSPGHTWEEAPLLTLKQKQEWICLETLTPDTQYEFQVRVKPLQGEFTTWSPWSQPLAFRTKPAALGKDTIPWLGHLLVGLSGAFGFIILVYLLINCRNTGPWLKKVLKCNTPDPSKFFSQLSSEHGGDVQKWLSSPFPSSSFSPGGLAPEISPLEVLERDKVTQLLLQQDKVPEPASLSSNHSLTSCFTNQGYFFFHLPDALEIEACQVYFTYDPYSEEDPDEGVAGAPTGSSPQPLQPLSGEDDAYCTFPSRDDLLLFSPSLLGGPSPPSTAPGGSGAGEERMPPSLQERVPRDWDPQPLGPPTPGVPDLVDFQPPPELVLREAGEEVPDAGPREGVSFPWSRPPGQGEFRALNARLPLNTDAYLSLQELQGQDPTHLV
T2 sequence (looked up) 3: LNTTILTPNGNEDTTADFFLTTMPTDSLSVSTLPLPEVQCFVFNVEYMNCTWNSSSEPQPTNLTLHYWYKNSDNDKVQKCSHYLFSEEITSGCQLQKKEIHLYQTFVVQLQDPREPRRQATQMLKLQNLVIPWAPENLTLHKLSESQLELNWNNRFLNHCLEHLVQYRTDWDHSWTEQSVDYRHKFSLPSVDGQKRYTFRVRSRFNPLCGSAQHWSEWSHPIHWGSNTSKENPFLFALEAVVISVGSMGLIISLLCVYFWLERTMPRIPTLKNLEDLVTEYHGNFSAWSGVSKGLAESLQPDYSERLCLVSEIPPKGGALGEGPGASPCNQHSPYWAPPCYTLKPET

[3] = molecular target: T3, IL-2Rα (recombinant IL-2 receptor α, R&D Systems Cat #: 223-2A/CF), biotinylated (human, UniProt P01589 22-213, limits assumed, biotinylated using sulfo-NHS-LC-LC-Biotin); test: SPR (Biacore), CM4 chip, biotinylated receptor on neutravidin
T3 construct: Bought reagent; also used here as the IL-2Rα partner of the in-silico analysis of PDB 2B5I (another construct); also called IL-2RA; CD25
T3 sequence (looked up): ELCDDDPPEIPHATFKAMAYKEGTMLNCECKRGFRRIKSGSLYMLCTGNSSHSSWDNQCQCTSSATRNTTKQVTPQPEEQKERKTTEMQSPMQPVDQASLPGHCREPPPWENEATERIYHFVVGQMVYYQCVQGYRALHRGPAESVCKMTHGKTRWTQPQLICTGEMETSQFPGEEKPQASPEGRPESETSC

[4] = molecular target: T4, IL-2Rβγ heterodimer, custom biotinylated Fc fusion protein (human IL-2Rβ 27-240-Fc-FLAG / human IL-2Rγ … (human, site-specific biotinylation at the AviTag)); test: as above
T4 construct: Extracellular regions fused to IgG1 knob-in-hole Fc subunits with tags; also called IL-2 receptor βγ heterodimer; Fc-IL-2Rβγ

B1: Fc-IL-2 heterodimer 117.46 (hIL-2v_Δ1-5_C125S), native IL-2Rα binding interface (Fc fusion)
chain 1: ESKYGPPCPPCPAPEAAGGPSVFLFPPKPKDTLMISRTPEVTCVVVDVSQEDPEVQFNWYVDGVEVHNAKTKPREEQFNSTYRVVSVLTVLHQDWLNGKEYKCKVSNKGLPSSIEKTISKAKGQPREPQVYTLPPSQEEMTKNQVSLWCLVKGFYPSDIAVEWESNGQPENNYKTTPPVLDSDGSFFLYSRLTVDKSRWQEGNVFSCSVMHEALHNHYTQKSLSLSLGGGGGSGGGGSGGGGSGGGGSSTKKTQLQLEHLLLDLQMILNGINNYKNPKLTRMLTFKFYMPKKATELKHLQCLEEELKPLEEVLNLAQSKNFHLRPRDLISNINVIVLELKGSETTFMCEYADETATIVEFLNRWITFSQSIISTLT
chain 2: ESKYGPPCPPCPAPEAAGGPSVFLFPPKPKDTLMISRTPEVTCVVVDVSQEDPEVQFNWYVDGVEVHNAKTKPREEQFNSTYRVVSVLTVLHQDWLNGKEYKCKVSNKGLPSSIEKTISKAKGQPREPQVYTLPPSQEEMTKNQVSLSCAVKGFYPSDIAVEWESNGQPENNYKTTPPVLDSDGSFFLVSRLTVDKSRWQEGNVFSCSVMHEALHNRFTQKSLSLSLGK
notes: hIgG4 knob-in-hole Fc heterodimer
[1]
  Treg EC50, STAT5 activation (PBMC STAT5 assay): < 0.001 nM
[2]
  Proliferation of KHYG-1 NK cells, EC50: 0.016 nM
[3]
  Kd: 60 nM
[4]
  Kd: 0.056 nM
